In patent publication US7173005 (dated 2007) one finds IC50, Kd and Ki data, which are given here for 27 molecules.

Test [1] addresses T1, human IGF-1 receptor (IGF-1R) (human, UniProt P08069). The test can be described thus: competition, TR-FRET vs b-20E2. A general note: In TR-FRET formats the signal depends on donor and acceptor labels being close together.
In test [2] the target is T1, human IGF-1 receptor (IGF-1R). The test can be described thus: competition, TR-FRET vs b-20E2. This is another data set of the same source.
Test [3] has as its target human insulin receptor (HIR) (human, UniProt P06213). In words: competition.
In test [4] the target is T1, human IGF-1 receptor (IGF-1R). The test can be described thus: competition, AlphaScreen vs b-hIGF-1.
Test [5] has the same target. The test can be described thus: competition.
For test [6] the target is unchanged. In words: competition, TRF vs b-rhIGF-1.

In general, IC50 refers to the concentration that gives 50% inhibition. The low end stands for greater potency in that assay, the high end for weaker potency in that assay. As a reminder, the Kd is a measure of binding affinity in units of concentration. Read a low Kd as a tighter complex. Usually Ki stands for a measure of affinity in units of concentration, obtained from inhibition or displacement. Low values mean a stronger hold on the target, high ones a looser hold on the target.

B1: 20E2 (D118) (peptide)
chain: DYKDFYDAIDQLVRGSARAGGTRD
In the case of B1, the IC50 in test [1] is 104 nM; in test [2] it was 100 nM.

B2: S118 (peptide)
chain: SDGFYNAIELLS
B2: the Kd in test [3] was 2400 nM.

B3: S242 (peptide)
chain: ANFYDWFVAELG
On to B3, for which, in test [3], the equilibrium dissociation constant (Kd) is 2000 nM.

B4: RP33-IGF (peptide)
chain: SFYSCLESLVNGPAEKSRGQWDGCRKK
For B4, in test [4], the IC50 stood at 9 nM.

B5: S326 / G33 (peptide)
chain: GIISQSCPESFYDWFAGQVSDPWWCW
In turn, B5 came in with a Ki in test [5] of 1450 nM. Also, the concentration for half-maximal inhibition (IC50) in test [6] is 1450 nM; in test [2] it was 178 nM.

B6: RP54 (peptide)
chain: EGSSINLLARAQIVELALEMGVQEE
On to B6, for which, in test [4], the IC50 came out at 1600 nM.

B7: S255 (peptide)
chain 1: SDGFYNAIELLSGGGX
chain 2: SDGFYNAIELLSGGGX
modifications: listing feature
B7 yielded a Kd in test [3] of 1600 nM.

B8: RP4 (peptide)
chain: PPWGARFYDAIEQLVFDNL
The molecule B8 yielded a 50% inhibitory concentration (IC50) in test [2] of 8100 nM.

B9: D815-6aa-RP9 (peptide)
chain: WLDQERAWLWCEISGRGCLSGGSGGSGSLDESFYDWFERQLGKK
For the molecule B9, the Ki in test [5] came out at 36 nM. Further, the 50% inhibitory concentration (IC50) in test [6] came to 35.7 nM.

B10: S171 (peptide)
chain: CGFHENFYDWFVRQVSKK
Take B10: in test [3], binding was characterised by a dissociation constant (Kd) of 2900 nM.

B11: S456 (peptide)
chain 1: XGSLDESFYDWFERQLGKK
chain 2: XKEWLDQEWAWVQCEVYGRGCPSEE
modifications: not fully specified; listing feature
With B11, the Kd in test [3] was determined as 2.4 nM.

B12: D815-12aa-RP9 (peptide)
chain: WLDQERAWLWCEISGRGCLSGGSGGSGGSGGSGSLDESFYDWFERQLGKK
The molecule B12 gave a Ki in test [5] of 3 nM. Moreover, in test [6], the IC50 came to 3.22 nM.

B13: S327 / RP6KK (peptide)
chain: TFYSCLASLLTGTPQPNRGPWERCRKK
In test [4], B13 displayed a concentration for half-maximal inhibition (IC50) of 190 nM.

B14: RP16 (peptide)
chain: VMDARDDPFYHKLSELVT
For B14, the 50% inhibitory concentration (IC50) in test [2] came out at 961 nM.

B15: S386 / RP9 without terminal lysines (peptide)
chain: GSLDESFYDWFERQLG
Molecule B15 showed a Ki in test [5] of 417 nM. Also, the IC50 in test [6] was found to be 417 nM; in test [1], 39.3 nM; in test [2], 33 nM.

B16: S168 (peptide)
chain: AAAAFYDWFAAAAAKK
In turn, B16 returned a dissociation constant Kd in test [3] of 3800 nM.

B17: A6 (peptide)
chain: SAKNFYDWFVKK
With B17, in test [1], the IC50 was found to be 31000 nM.

B18: S120 (peptide)
chain: HDPFYSMMKSLLK
Molecule B18 gave a Kd in test [3] of 2000 nM.

B19: rD815 (peptide)
chain: WLDQERAWLWCEISGRGCLS
For the molecule B19, the inhibitory constant (Ki) in test [5] is 4080 nM. The same molecule displayed an IC50 in test [6] of 4080 nM.

B20: RP15 (peptide)
chain: SQAGSAFYAWFDQVLRTV
Take B20: in test [2], the IC50 is 706 nM.

B21: D815-6aa-G33 (protein)
chain: WLDQERAWLWCEISGRGCLSGGSGGSGIISQSCPESFYDWFAGQVSDPWWCW
B21 displayed an inhibition constant Ki in test [5] of 624 nM. The molecule also had a half-maximal inhibitory concentration (IC50) in test [6] of 624 nM.

B22: S263 / D8B12 (peptide)
chain: WLEQERAWIWCEIQGSGCRA
B22 gave an IC50 in test [1] of 11300 nM.

B23: C1 (D112) (peptide)
chain: CWARPCGDAANFYDWFVQQAS
For the molecule B23, the half-maximal inhibitory concentration (IC50) in test [1] turned out to be 0.88 nM; in test [2], 10 nM.

B24: H2C (D117) (peptide)
chain: FHENFYDWFVQRVSKK
On to B24, for which the IC50 in test [1] came to 460 nM.

B25: S246 (peptide)
chain 1: ACAWPTYWNCGGGGX
chain 2: FHENFYDWFVRQVSKKX
modifications: listing feature
In the case of B25, binding in test [3] was characterised by a dissociation constant (Kd) of 5000 nM.

B26: S173 (peptide)
chain: LDALDRLMRYFEERPSL
Regarding B26, the IC50 in test [1] amounted to 6290 nM.

B27: S122 (peptide)
chain: HPTSKEIYAKLLK
Take B27: binding in test [3] was characterised by a dissociation constant (Kd) of 9300 nM.
